To fix the notation:
B1: POU domain, class 3, transcription factor 1, residues 247 to 324; numbered along this chain, Q03052 (parent)
chain: EDAPSSDDLEQFAKQFKQRRIKLGFTQADVGLALGTLYGNVFSQTTICRFEALQLSFKNMCKLKPLLNKWLEETDSSS

± gives the uncertainty stated by the source.

This series covers variants of B1. Briefly: abundance fitness (aPCA) (normalised: wild type 0, dead -1); higher = more abundant; growth selection in yeast, the domain comes from the species named. Conditions: Homo sapiens.
As for EDAPSSDDLEQFAKQFKQRRIKLGFTQADVGLALGTLYGNVFSQTTICRFEALQLSFKEMCKLKPLLNKWLEETDSSS [N59E], the abundance fitness was 0.132 ± 0.063.
The value for EDAPSSDDLEQFAKQFKQRRIKLGFTQADVGLALGTLYGNVFSQTTICRFEALQLSFKAMCKLKPLLNKWLEETDSSS [N59A] was 0.08 ± 0.049; that for EDAPSSDDLEQFAKQFKQRRIKLGFTQADVGLALGTLYGNVFSQTTICRFEALQLSFKCMCKLKPLLNKWLEETDSSS [N59C] was -0.198 ± 0.088.
In the case of EDAPSSDDLEQFAKQFKQRRIKLGFTQADVGLALGTLYGNVFSQTTICRFEALQLSFKDMCKLKPLLNKWLEETDSSS [N59D], the abundance fitness turned out to be 0.193 ± 0.063.
Consider EDAPSSDDLEQFAKQFKQRRIKLGFTQADVGLALGTLYGNVFSQTTICRFEALQLHFKNMCKLKPLLNKWLEETDSSS [S56H], for which the abundance fitness was -0.724 ± 0.26.
The value for EDAPSSDDLEQFAKQFKQRRIKLGFTQADVGLALGTLYGNVFSQTTICRFEALQLAFKNMCKLKPLLNKWLEETDSSS [S56A] was -0.472 ± 0.071; that for EDAPSSDDLEQFAKQFKQRRIKLGFTQADVGLALGTLYGNVFSQTTICRFEALQLCFKNMCKLKPLLNKWLEETDSSS [S56C] was -0.439 ± 0.1; that for EDAPSSDDLEQFAKQFKQRRIKLGFTQADVGLALGTLYGNVFSQTTICRFEALQLKFKNMCKLKPLLNKWLEETDSSS [S56K] was -0.309 ± 0.092.
On to EDAPSSDDLEQFAKQFKQRRIKLGFTQADVGLALGTLYGNVFSQTTICRFEALQLLFKNMCKLKPLLNKWLEETDSSS [S56L], for which the abundance fitness was -0.88 ± 0.12.
For EDAPSSDDLEQFAKQFKQRRIKLGFTQADVGLALGTLYGNVFSQTTICRFEALQLRFKNMCKLKPLLNKWLEETDSSS [S56R], the abundance fitness is -0.501 ± 0.065.
As to EDAPSSDDLEQFAKQFKQRRIKLGFTQADVGLALGTLYGNVFSQTTICRFEALQLFFKNMCKLKPLLNKWLEETDSSS [S56F], the abundance fitness was -0.719 ± 0.26.
The value for EDAPSSDDLEQFAKQFKQRRIKLGFTQADVGLALGTLYGNVFSQTTICRFEALQLYFKNMCKLKPLLNKWLEETDSSS [S56Y] was -0.745 ± 0.23; that for EDAPSSDDLEQFAKQFKQRRIKLGFTQADVGLALGTLYGNVFSQTTICRFEALQLIFKNMCKLKPLLNKWLEETDSSS [S56I] was -0.717 ± 0.48.
EDAPSSDDLEQFAKQFKQRRIKLGFTQADVGLALGTLYGNVFSQTTICRFEALQLVFKNMCKLKPLLNKWLEETDSSS [S56V]: the abundance fitness is -0.945 ± 0.13.
The value for EDAPSSDDLEQFAKQFKQRRIKLGFTQADVGLALGTLYGNVFSQTTICRFEALQLTFKNMCKLKPLLNKWLEETDSSS [S56T] was -0.287 ± 0.077; that for EDAPSSDDLEQFAKQFKQRRIKLGFTQADVGLALGTLYGNVFSQTTICRFEALQLQFKNMCKLKPLLNKWLEETDSSS [S56Q] was -0.577 ± 0.12.
For EDAPSSDDLEQFAKQFKQRRIKLGFTQADVGLALGTLYGNVFSQTTICRFEALQLGFKNMCKLKPLLNKWLEETDSSS [S56G], the abundance fitness is -0.198 ± 0.046.
The value for EDAPSSDDLEQFAKQFKQRRIKLGFTQADVGLALGTLYGNVFSQTTICRFEALQLPFKNMCKLKPLLNKWLEETDSSS [S56P] was 0.09 ± 0.073; that for EDAPSSDDLEQFAKQFKQRRIKLGFTQADVGLALGTLYGNVFSQTTICRFEALQLDFKNMCKLKPLLNKWLEETDSSS [S56D] was 0.031 ± 0.088.
The value for EDAPSSDDLEQFAKQFKQRRIKLGFTQADVGLALGTLYGNVFSQTTICRFEALQLMFKNMCKLKPLLNKWLEETDSSS [S56M] was -0.818 ± 0.19; that for EDAPSSDDLEQFAKQFKQRRIKLGFTQADVGLALGTLYGNVFSQTTICRFEALQLEFKNMCKLKPLLNKWLEETDSSS [S56E] was -0.31 ± 0.072.
The value for EDAPSSDDLEQFAKQFKQRRIKLGFTQADVGLALGTLYGNVFSQTTICRFEALQLSFVNMCKLKPLLNKWLEETDSSS [K58V] was -0.272 ± 0.073; that for EDAPSSDDLEQFAKQFKQRRIKLGFTQADVGLALGTLYGNVFSQTTICRFEALQLSFLNMCKLKPLLNKWLEETDSSS [K58L] was -0.347 ± 0.078; that for EDAPSSDDLEQFAKQFKQRRIKLGFTQADVGLALGTLYGNVFSQTTICRFEALQLSFWNMCKLKPLLNKWLEETDSSS [K58W] was -0.303 ± 0.073.
Take EDAPSSDDLEQFAKQFKQRRIKLGFTQADVGLALGTLYGNVFSQTTICRFEALQLSFQNMCKLKPLLNKWLEETDSSS [K58Q]: the abundance fitness was -0.012 ± 0.068.
The value for EDAPSSDDLEQFAKQFKQRRIKLGFTQADVGLALGTLYGNVFSQTTICRFEALQLSFGNMCKLKPLLNKWLEETDSSS [K58G] was -0.074 ± 0.046; that for EDAPSSDDLEQFAKQFKQRRIKLGFTQADVGLALGTLYGNVFSQTTICRFEALQLSFDNMCKLKPLLNKWLEETDSSS [K58D] was -0.185 ± 0.21; that for EDAPSSDDLEQFAKQFKQRRIKLGFTQADVGLALGTLYGNVFSQTTICRFEALQLSFINMCKLKPLLNKWLEETDSSS [K58I] was -0.045 ± 0.28.
The value for EDAPSSDDLEQFAKQFKQRRIKLGFTQADVGLALGTLYGNVFSQTTICRFEALQLSFPNMCKLKPLLNKWLEETDSSS [K58P] was 0.13 ± 0.069.
The value for EDAPSSDDLEQFAKQFKQRRIKLGFTQADVGLALGTLYGNVFSQTTICRFEALQLSFCNMCKLKPLLNKWLEETDSSS [K58C] was -0.53 ± 0.33.
As for EDAPSSDDLEQFAKQFKQRRIKLGFTQADVGLALGTLYGNVFSQTTICRFEALQLSFTNMCKLKPLLNKWLEETDSSS [K58T], the abundance fitness came out at 0.021 ± 0.074.
For EDAPSSDDLEQFAKQFKQRRIKLGFTQADVGLALGTLYGNVFSQTTICRFEALQLSFSNMCKLKPLLNKWLEETDSSS [K58S], the abundance fitness is -0.152 ± 0.084.
In the case of EDAPSSDDLEQFAKQFKQRRIKLGFTQADVGLALGTLYGNVFSQTTICRFEALQLSFENMCKLKPLLNKWLEETDSSS [K58E], the abundance fitness is 0.031 ± 0.057.
The value for EDAPSSDDLEQFAKQFKQRRIKLGFTQADVGLALGTLYGNVFSQTTICRFEALQLSFANMCKLKPLLNKWLEETDSSS [K58A] was -0.096 ± 0.055.
The value for EDAPSSDDLEQFAKQFKQRRIKLGFTQADVGLALGTLYGNVFSQTTICRFEALQLSFRNMCKLKPLLNKWLEETDSSS [K58R] was -0.142 ± 0.049.

Source of the values: the Human Domainome abundance scans (Beltran et al. 2025).
